Residue numbers refer to the chain shown, from its start.

To fix the notation:
B1: Nb 3B9 (VHH)
VHH: QVQLQESGGGLVQAGGSLRLSCAASGRTFSSYAMGWFRQAPGMEREFVAAIPWIGGNTYYADSVKGRFTISRDNAKTLYLLMNSLKPEDTALYYCAARAHSYVLSTSPSHYDYWGQGTQVTVSS
notes: Eluted in SEC as a dimer and a monomer population; the two were kept separate in the later assays and counted as two of the 14 Nbs; not shown: His-tag, C-terminal, kept
B2: Nb 3G9 (VHH)
VHH: B1 VHH with G16D, G26R, F29S, S30N, S31T, M43K
notes: as for B1
B3: Nb 3H7 (VHH)
VHH: QVQLQESGGGLVQAGGSLRLSCAGPVRAFNTYAMGWFRQAPGKEREFVAAITRSGDVTYYSNSVKGRFTISRENAKNTVYLHMNSLKPEDTAVYSCAADAQLTPLNPRAQEYAYWGQGTQVTVSS
notes: also called nanobody 3H7; not shown: His-tag, C-terminal, kept
B4: Nb 3G11 (VHH)
VHH: QVQLQESGGGLVQAGGSLRLSCAVSGRLNSRYSMGWFRQAPGKEREFVAVVKWTTGGTMYADSVKGRFTISRDNRKNTVYLQMNTLKPEDTALYYCASRPDYSNSYYYTTVSDYSDWGQGTQVTVSS
notes: also called nanobody 3G11; not shown: His-tag, C-terminal, kept

The test concerns the target Fascin-1 1-493 (full-length human Fascin-1 WT, untagged) (human, UniProt Q16658). Briefly: pull-down; in vitro co-precipitation of recombinant proteins: His-tagged Nbs immobilised on Nickel Sepharose as bait for untagged Fascin-1; SDS-PAGE. To be noted: both partners purified.
Take B1: the binding result was “binds”. Take B2: the binding result was “binds”. With B3 the entry was “binds”; with B4, “binds”.
